As usually defined, the EC50 is the midpoint of the concentration-response curve. A low value points to greater potency.

Test [1] relates to H520. Nature of the test: In vitro cancer cell cytotoxicity (CellTiter-Glo cell viability). It counts as cell-based, human. The text has this:
EDCs were constructed using linker-ready agents PEG24-CEN09-106, PEG24-CEN09-107, PEG24-CEN10-110 and PEG24-CEN-319. As described in Example 1, linker-ready agent PEG24-CEN-319 contain digitoxigenin while the others contain scillarenin. Linker-ready agents PEG24-CEN09-106, PEG24-CEN09-107, PEG24-CEN10-110 all use different linkers. Specifically, PEG24-CEN09-106 and PEG24-CEN09-107 have different sugars in the linker, while PEG24-CEN10-110 contains a longer linker that includes a primary amine.
All of the cell lines below, except H520, express the Na,K-ATPase with the dysadherin subunit and so present the target of the antibody and drug in close proximity.
For orientation: ATP-based viability assays read luminescence as a measure of living cells.

Test [2] has as its system Panc-1 xenografts. Nature of the test: Panc-1 subcutaneous xenograft model (tumor fragments). Particulars: drug loading of 7; 1, 5, 15 mg/kg iv Q3Dx7 or Q7Dx3. It counts as in vivo, female HRLN nu/nu mice. How it is done: In another study, the Panc-1 subcutaneous xenograft model was used to evaluate antitumor activity of M53-PEG24-CEN09-106 with a drug loading of 7 drugs per antibody. Subcutaneous Panc-1 xenografts were initiated in female HRLN nu/nu mice by implanting 1 mm^3 PANC-1 tumor fragments were implanted subcutaneously into the right flank, tumor growth was monitored and mice bearing tumors of 80-120 mm^3 were selected for the study. Tumor volume was measured for each group 2× per week using calibrated vernier calipers plotted against day of first dose to produce the graph shown in FIG. 7. Among the treatment groups, no toxic effects were observed (toxicity determined as >10% weight loss during study period).

B1: M53-PEG24-CEN09-106: Class 1 EDC: antibody M53 conjugated to linker-ready agent PEG24-CEN09-106 (scillarenin, 4-amino-xyloside, PEG24) (conjugate)
heavy: EVQLVESGGGLVQPKGTLKLSCAASGFSFNTHAMNWVRQAPGKSLEWVARTMSKSNNYATYYADSVKDRFIIRADDSQSMLYLQMNNLKTEDTAMYYCVRDDPKRGMDYWGQGTSVTVSSAKTTPPSVYPLAPGSAAQTNSMVTLGCLVKGYFPEPVTVTWNSGSLSSGVHTFPAVLQSDLYTLSSSVTVPSSTWPSETVTCNVAHPASSTKVDKKIE
light: GIVMSQSPSSLAVSVGEKVTMSCKPSQSLLYSRNQKIYLAWYQQKPGQSPKLLIYWASTRESGVPDRFTGSGSGTDFTLIISSVRAEDLAVYYCQQYYNYPLTFGAGTKLELKRADAAPTVSIFPPSSEQLTSGGASVVCFLNNFYPKDINVKWKIDGSERQNGVLNSWTDQDSKDSTYSMSSTLTLTKDEYERHNSYTCEATHKTSTSPIVKSFNR
With B1, the EC50 in test [1] (H520 cells (no FXYD5 surface expression), 3 days incubation) was more than 50 nM. The “activity on H520 cells” value in test [1] (H520 cells do not express dysadherin (FXYD5)) was “not active”. Besides, in test [2], the “tumor response compared to vehicle group” value is “tumor reduction in a dose dependent manner”.
